Laboratory results published in patent US20240417457A1.

Target: FRα covalently bound to a CM5 sensor chip (UniProt P15328)
Assay: SPR (Biacore T200), FRα amine-coupled to a CM5 chip, 180 sec association then dissociation

Sequence of UniProt P15328 (P15328 25-234 limits assumed): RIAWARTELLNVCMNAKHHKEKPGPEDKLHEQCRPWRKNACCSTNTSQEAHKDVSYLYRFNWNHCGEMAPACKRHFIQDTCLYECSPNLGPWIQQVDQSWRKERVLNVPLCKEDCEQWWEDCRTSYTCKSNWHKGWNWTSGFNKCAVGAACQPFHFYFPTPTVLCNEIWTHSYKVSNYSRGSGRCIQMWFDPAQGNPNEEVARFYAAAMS

binding at time 300 sec as percent of the plateau: 75%
B1: Antibody I (ScFv, SEQ. ID. NOs: 9-10) (scFv, part only; not given: linker, domain order, His tag, V domains shown, not shown: another chain or arm of the molecule; small tags and cut ends)
VH: QVQLVQSGSELKKPGASVKVSCKASDYIFTNYDITWVRQAPGQGLEWMGEIDPRSGKSYYNEKFKGKSTLTADKSVSTAYLQISSLKAEDTAVYFCATMYYYGSSPPMDYWGQGTTVTVS
VL: DIQMTQSPSSLSASVGDRVTITCRASQDINNFLNWYQQKPGKAPKLLIYYTSRLHSGVPSRFSGSGSGTDYTFTISSLQPEDIATYFCQQSSTIPRTFGQGTKLEIK
